Experimental data as given in patent publication US20250101098A1 (R P SCHERER TECHNOLOGIES, published 2025).
Residue numbers refer to the chain shown, from its start. Each block holds one binder with its values, some of them ahead of it.

Tests used:
[1] = target: T1, human nectin-4 protein expressed on the surface of cells (human, UniProt Q96NY8 32-510); assay: cell-based or functional assay
T1 sequence: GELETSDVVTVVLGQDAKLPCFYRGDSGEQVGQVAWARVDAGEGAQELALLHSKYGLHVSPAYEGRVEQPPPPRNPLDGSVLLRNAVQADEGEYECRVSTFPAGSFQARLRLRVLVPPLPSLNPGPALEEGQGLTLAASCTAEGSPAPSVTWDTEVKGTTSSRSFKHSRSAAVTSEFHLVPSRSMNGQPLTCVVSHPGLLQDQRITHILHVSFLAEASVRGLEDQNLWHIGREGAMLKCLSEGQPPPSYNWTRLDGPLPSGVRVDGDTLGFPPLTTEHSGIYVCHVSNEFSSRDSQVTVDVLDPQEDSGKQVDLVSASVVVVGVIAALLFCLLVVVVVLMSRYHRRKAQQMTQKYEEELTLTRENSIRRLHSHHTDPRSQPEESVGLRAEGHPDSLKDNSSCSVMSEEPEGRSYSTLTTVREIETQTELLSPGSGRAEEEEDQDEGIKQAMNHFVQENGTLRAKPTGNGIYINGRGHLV

[2] = target: T2, recombinant human Nectin-4-His protein (human, UniProt Q96NY8 32-349); assay: ELISA, coated antigen
T2 construct: Rescreening antigen and bought ELISA antigen are treated as one molecule; also called human Nectin-4-His tagged; Ag1; not shown: His tag
T2 sequence: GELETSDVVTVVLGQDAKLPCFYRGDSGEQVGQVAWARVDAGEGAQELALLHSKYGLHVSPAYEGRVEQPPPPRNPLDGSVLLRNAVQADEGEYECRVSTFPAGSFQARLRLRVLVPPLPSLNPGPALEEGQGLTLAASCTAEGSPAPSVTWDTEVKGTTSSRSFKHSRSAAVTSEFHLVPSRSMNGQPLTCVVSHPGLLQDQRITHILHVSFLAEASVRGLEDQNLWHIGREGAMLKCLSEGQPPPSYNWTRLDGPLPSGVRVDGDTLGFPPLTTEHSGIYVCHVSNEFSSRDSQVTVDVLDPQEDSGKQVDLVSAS

B1: Nectin-4 5D9 VH3/VL3 (antibody, V domains shown)
VH: QVQLQESGPGLVKPSETLSLTCTVSGGSITNYGVHWIRQPPGKGLEWLGVIWSGGSTDYNPSLKSRVTISVDTSKNQFSLKLSSVTAADTAVYYCARSGKWYYFDYWGQGTLVTVSS
VL: DIQMTQSPSSLSASVGDRVTITCRASQSIYSNLAWYQQKPGKAPKLLVYAATNLASGVPSRFSGSGSGTDFTLTISSLQPEDFATYYCQHFWGTPTFGGGTKVEIK
notes: Humanized; also called 5D9 VH variant 3 / 5D9 VL variant 3
Cell kill IC50, HekNectin4 [1]: 27.1 nM
Cell kill IC50, MDA-MB468 [1]: 15.6 nM
Cell kill IC50, SKBR3 [1]: 10.6 nM
EC50 [2]: 23.9 nM

B3: Nectin-4 5D9 VH3/VL2 (antibody, V domains shown)
VH: B1 VH
VL: B1 VL with R18T, S28N, P40Q, S56D, T74K, S76N
notes: Humanized; also called 5D9 VH variant 3 / 5D9 VL variant 2
Cell kill IC50, HekNectin4 [1]: 54.8 nM
Cell kill IC50, MDA-MB468 [1]: 17.7 nM
Cell kill IC50, SKBR3 [1]: 15.3 nM
EC50 [2]: 8.62 nM

B4: Nectin-4 5D9 VH3/VL4 (antibody, V domains shown)
VH: B1 VH
VL: B1 VL with Q27E, S28N, S56D, F71Y
notes: Humanized; also called 5D9 VH variant 3 / 5D9 VL variant 4
Cell kill IC50, HekNectin4 [1]: 41.1 nM
Cell kill IC50, MDA-MB468 [1]: 40.5 nM
Cell kill IC50, SKBR3 [1]: 26 nM
EC50 [2]: 43600 nM

B12: Nectin-4 5D9 VH2/VL3 (antibody, V domains shown)
VH: B1 VH with G27F, P61A, K64V, V71R, N76S, S79F, S83N, T86Q, A88D, L112T
VL: B1 VL
notes: Humanized; also called 5D9 VH variant 2 / 5D9 VL variant 3
Cell kill IC50, HekNectin4 [1]: 33.7 nM
Cell kill IC50, MDA-MB468 [1]: 21.4 nM
Cell kill IC50, SKBR3 [1]: 15.9 nM
EC50 [2]: 108 nM

B13: Nectin-4 5D9 VH2/VL5 (antibody, V domains shown)
VH: B1 VH with G27F, P61A, K64V, V71R, N76S, S79F, S83N, T86Q, A88D, L112T
VL: B1 VL with A55Q
notes: Humanized; also called 5D9 VH variant 2 / 5D9 VL variant 5
Cell kill IC50, HekNectin4 [1]: 182 nM
Cell kill IC50, MDA-MB468 [1]: 252 nM
Cell kill IC50, SKBR3 [1]: 234 nM
EC50 [2]: 14.7 nM

The next lines start with results.

EC50 [2]: 0.232 nM
B2: Nectin-4 5D9 VH4/VL4 (antibody, V domains shown)
VH: B1 VH with E6Q, G27F, I29L, I37V, V67L, V71R, F78V, L80F, L82M
VL: B1 VL with Q27E, S28N, S56D, F71Y
notes: Humanized; also called 5D9 VH variant 4 / 5D9 VL variant 4
Cell kill IC50, HekNectin4 [1]: 0.102 nM
Cell kill IC50, MDA-MB468 [1]: 3.37 nM
Cell kill IC50, SKBR3 [1]: 9.45 nM

EC50 [2]: 56.1 nM
B5: Nectin-4 5D9 VH5/VL5 (antibody, V domains shown)
VH: B1 VH with I29L, I37V, L48I, D58N, V71R, F78V
VL: B1 VL with A55Q
notes: Humanized; also called 5D9 VH variant 5 / 5D9 VL variant 5
Cell kill IC50, HekNectin4 [1]: 33.5 nM
Cell kill IC50, MDA-MB468 [1]: 24 nM
Cell kill IC50, SKBR3 [1]: 17.8 nM

EC50 [2]: 0.204 nM
B6: Nectin-4 5D9 VH4/VL3 (antibody, V domains shown)
VH: B1 VH with E6Q, G27F, I29L, I37V, V67L, V71R, F78V, L80F, L82M
VL: B1 VL
notes: Humanized; also called 5D9 VH variant 4 / 5D9 VL variant 3
Cell kill IC50, HekNectin4 [1]: 0.333 nM
Cell kill IC50, MDA-MB468 [1]: 3.71 nM
Cell kill IC50, SKBR3 [1]: 6.46 nM

EC50 [2]: 0.195 nM
B7: Nectin-4 5D9 VH4/VL5 (antibody, V domains shown)
VH: B1 VH with E6Q, G27F, I29L, I37V, V67L, V71R, F78V, L80F, L82M
VL: B1 VL with A55Q
notes: Humanized; also called 5D9 VH variant 4 / 5D9 VL variant 5; Nectin-4 VH4/VL5
Cell kill IC50, HekNectin4 [1]: 0.269 nM
Cell kill IC50, MDA-MB468 [1]: 3.93 nM
Cell kill IC50, SKBR3 [1]: 7.25 nM

EC50 [2]: 7.23 nM
B8: Nectin-4 5D9 VH3/VL5 (antibody, V domains shown)
VH: B1 VH
VL: B1 VL with A55Q
notes: Humanized; also called 5D9 VH variant 3 / 5D9 VL variant 5
Cell kill IC50, HekNectin4 [1]: 40 nM
Cell kill IC50, MDA-MB468 [1]: 43.3 nM
Cell kill IC50, SKBR3 [1]: 14.9 nM

EC50 [2]: 2.06 nM
B9: Nectin-4 5D9 VH5/VL2 (antibody, V domains shown)
VH: B1 VH with I29L, I37V, L48I, D58N, V71R, F78V
VL: B1 VL with R18T, S28N, P40Q, S56D, T74K, S76N
notes: Humanized; also called 5D9 VH variant 5 / 5D9 VL variant 2
Cell kill IC50, HekNectin4 [1]: 49.6 nM
Cell kill IC50, MDA-MB468 [1]: 17.5 nM
Cell kill IC50, SKBR3 [1]: 10.6 nM

EC50 [2]: 0.702 nM
B10: Nectin-4 5D9 VH5/VL3 (antibody, V domains shown)
VH: B1 VH with I29L, I37V, L48I, D58N, V71R, F78V
VL: B1 VL
notes: Humanized; also called 5D9 VH variant 5 / 5D9 VL variant 3
Cell kill IC50, HekNectin4 [1]: 15.6 nM
Cell kill IC50, MDA-MB468 [1]: 16.6 nM
Cell kill IC50, SKBR3 [1]: 9.86 nM

EC50 [2]: 11.5 nM
B11: Nectin-4 5D9 VH5/VL4 (antibody, V domains shown)
VH: B1 VH with I29L, I37V, L48I, D58N, V71R, F78V
VL: B1 VL with Q27E, S28N, S56D, F71Y
notes: Humanized; also called 5D9 VH variant 5 / 5D9 VL variant 4
Cell kill IC50, HekNectin4 [1]: 22.1 nM
Cell kill IC50, MDA-MB468 [1]: 11 nM
Cell kill IC50, SKBR3 [1]: 9.53 nM
